Measurements: publication PMC9268357 (Science (New York, N.y.), 2021)

B1: S2P6 monoclonal antibody (antibody, V domains shown)
VH: EVQLVQSGAEVKKPGASVKVSCKASGYTFTSQYMHWVRQAPGQGLEWIGIINPSGVHTSYAQKFQGRVTLTRDTSTSTLYMELSSLRSEDTAVYYCARGSPKGAFDYWGQGTLVTVSS
VL: not shown
notes: also called S2P6 mAb; S2P6 IgG; copies: 2 + 2
B2: S2P6 Fab fragment (Fab, V domains shown)
VH: B1 VH
VL: not shown

Key:
[1] = biological target: T1, prefusion-stabilized SARS-CoV S ectodomain trimer (SARS-CoV, isolate , UniProt P59594, stabilised); test: cell-based or functional assay
[2] = biological target: T2, prefusion-stabilized MERS-CoV S ectodomain trimer (MERS-CoV, isolate not shown; stand-in …, UniProt K9N5Q8, stabilised); test: cell-based or functional assay
[3] = biological target: T1, prefusion-stabilized SARS-CoV S …; test: SPR; S2P6 Fab fragment and S glycoproteins (fig. S1, G and H); settings: both partners purified
[4] = biological target: T2, prefusion-stabilized MERS-CoV S …; test: as above; settings: both partners purified

| Binder | neutralization of VSV pseudotyped with SARS-CoV S, IC50 [1] [µg/mL] | neutralization of VSV pseudotyped with MERS-CoV S, IC50 [2] [µg/mL] | Kd [3] [nM] | Kd [4] [nM] |
| --- | --- | --- | --- | --- |
| B1 | 2.4 | 17.1 | – | – |
| B2 | – | – | 7 | 12 |
